Substitutions are numbered along the chain they refer to.

The chains are these.
T1: human NTB-A (human, UniProt Q96DU3 22-332)
T1 construct: Endogenous NTB-A on antigen-positive Ramos cells (also on MM.1R, WIL2-S and Raji cells and normal human T and B lymphocytes); also called SLAMF6; human NTB-A isoform-1
T1 sequence: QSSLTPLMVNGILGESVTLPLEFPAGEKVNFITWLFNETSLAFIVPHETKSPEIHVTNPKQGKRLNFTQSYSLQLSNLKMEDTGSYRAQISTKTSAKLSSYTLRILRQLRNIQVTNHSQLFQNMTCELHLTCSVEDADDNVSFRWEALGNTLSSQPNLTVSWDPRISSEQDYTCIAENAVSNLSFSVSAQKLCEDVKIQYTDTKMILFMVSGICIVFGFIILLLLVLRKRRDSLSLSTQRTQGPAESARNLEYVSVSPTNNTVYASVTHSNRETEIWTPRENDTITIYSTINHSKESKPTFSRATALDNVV

B1: humanized 20F3 HDLD antibody (antibody, V domains shown)
VH: QIQLVQSGSELKKPGASVKVSCKASGYTFTNYGMNWVRQAPGQDLKWMGWINTYSGEPRYADDFKGRFVFSLDKSVNTAYLQISSLKAEDTAVYYCARDYGRWYFDVWGQGTTVTVSS
VL: QIVLSQSPATLSLSPGERATMSCRASSSVSHMHWYQQKPGQAPRPWIYATSNLASGVPARFSGSGSGTDYTLTISSLEPEDFAVYYCQQWSSTPRTFGGGTKVEIKR
notes: also called h20F3_HDLD; h20F3_HDLD-AF647
B2: c20F3-1910(2) ADC (other)
VH: QIQLVQSGPELKKPGETVKISCKASGYTFTNYGMNWVKQAPGKDLKWMGWINTYSGEPRYADDFKGRFAFSLEKSANTAYLQINNLKNEDMATYFCARDYGRWYFDVWGTGTTVTVSS
VL: QIVLSQSPAILSASPGEKVTMTCRASSSVSHMHWYQQKPGSSPKPWIYATSNLASGVPARFSGSGSGTSYSLTISRVEAEDAATYYCQQWSSTPRTFGGGTKLEIKR
modifications: PBD dimer drug-linker 1910, load 2 by its name; attachment site not stated for the chimeric antibody
B3: c20F3-vcMMAE(4) ADC (other)
VH: B2 VH
VL: B2 VL
modifications: MMAE via a cathepsin-cleavable valine-citrulline linker, load 4 by its name; attachment sites not stated
B4: murine 20F3 antibody (antibody, mouse IgG1, V domains shown)
VH: B2 VH
VL: B2 VL
notes: also called mouse 20F3
B5: humanized 20F3 HCLB (antibody, V domains shown)
VH: B1 VH with K46E
VL: B1 VL with Q1E, S5T, M21L, V57I
notes: Humanized heavy chain HC paired with humanized light chain LB
B6: humanized 20F3 HBLB (antibody, V domains shown)
VH: B1 VH with D44G, K46E, N77S
VL: B1 VL with Q1E, S5T, M21L, V57I
notes: Humanized heavy chain HB paired with humanized light chain LB
B7: humanized 20F3 HALB (antibody, V domains shown)
VH: B1 VH with I2V, D44G, K46E, K74T, N77S
VL: B1 VL with Q1E, S5T, M21L, V57I
notes: Humanized heavy chain HA paired with humanized light chain LB
B8: humanized 20F3 HELC (antibody, V domains shown)
VH: B1 VH with R38K, V69A, Y95F
VL: B1 VL with M21L, V57I
notes: Humanized heavy chain HE paired with humanized light chain LC
B9: humanized 20F3 HALD (antibody, V domains shown)
VH: B1 VH with I2V, D44G, K46E, K74T, N77S
VL: B1 VL
notes: Humanized heavy chain HA paired with humanized light chain LD
B10: humanized 20F3 HCLC (antibody, V domains shown)
VH: B1 VH with K46E
VL: B1 VL with M21L, V57I
notes: Humanized heavy chain HC paired with humanized light chain LC
B11: humanized 20F3 HDLC (antibody, V domains shown)
VH: B1 VH
VL: B1 VL with M21L, V57I
notes: Humanized heavy chain HD paired with humanized light chain LC
B12: humanized 20F3 HDLA (antibody, V domains shown)
VH: B1 VH
VL: B1 VL with Q1E, S5T, M21L, P45L, W46L, V57I, Y70F
notes: Humanized heavy chain HD paired with humanized light chain LA
B13: humanized 20F3 HELB (antibody, V domains shown)
VH: B1 VH with R38K, V69A, Y95F
VL: B1 VL with Q1E, S5T, M21L, V57I
notes: Humanized heavy chain HE paired with humanized light chain LB
B14: humanized 20F3 HBLC (antibody, V domains shown)
VH: B1 VH with D44G, K46E, N77S
VL: B1 VL with M21L, V57I
notes: Humanized heavy chain HB paired with humanized light chain LC
B15: humanized 20F3 HCLA (antibody, V domains shown)
VH: B1 VH with K46E
VL: B1 VL with Q1E, S5T, M21L, P45L, W46L, V57I, Y70F
notes: Humanized heavy chain HC paired with humanized light chain LA
B16: humanized 20F3 HELD (antibody, V domains shown)
VH: B1 VH with R38K, V69A, Y95F
VL: B1 VL
notes: Humanized heavy chain HE paired with humanized light chain LD
B17: humanized 20F3 HDLB (antibody, V domains shown)
VH: B1 VH
VL: B1 VL with Q1E, S5T, M21L, V57I
notes: Humanized heavy chain HD paired with humanized light chain LB
B18: humanized 20F3 HBLA (antibody, V domains shown)
VH: B1 VH with D44G, K46E, N77S
VL: B1 VL with Q1E, S5T, M21L, P45L, W46L, V57I, Y70F
notes: Humanized heavy chain HB paired with humanized light chain LA
B19: humanized 20F3 HCLD (antibody, V domains shown)
VH: B1 VH with K46E
VL: B1 VL
notes: Humanized heavy chain HC paired with humanized light chain LD
B20: humanized 20F3 HALC (antibody, V domains shown)
VH: B1 VH with I2V, D44G, K46E, K74T, N77S
VL: B1 VL with M21L, V57I
notes: Humanized heavy chain HA paired with humanized light chain LC
B21: humanized 20F3 HELA (antibody, V domains shown)
VH: B1 VH with R38K, V69A, Y95F
VL: B1 VL with Q1E, S5T, M21L, P45L, W46L, V57I, Y70F
notes: Humanized heavy chain HE paired with humanized light chain LA
B22: humanized 20F3 HALA (antibody, V domains shown)
VH: B1 VH with I2V, D44G, K46E, K74T, N77S
VL: B1 VL with Q1E, S5T, M21L, P45L, W46L, V57I, Y70F
notes: Humanized heavy chain HA paired with humanized light chain LA
B23: humanized 20F3 HBLD (antibody, V domains shown)
VH: B1 VH with D44G, K46E, N77S
VL: B1 VL
notes: Humanized heavy chain HB paired with humanized light chain LD
B24: h20F3ec (antibody, human IgG1, kappa, V domains shown)
VH: B1 VH
VL: B1 VL
B25: chimeric 20F3 (antibody, V domains shown)
VH: B2 VH
VL: B2 VL
notes: It was detected with goat anti-human IgG, so the constant regions are human, but they are not specified

The target of one assay is T1, human NTB-A. Description: saturation binding of Alexa Fluor 647-labeled antibody (h20F3_HDLD-AF647) on Ramos cells, flow cytometry. As to the method:
(§1) Antigen positive Ramos cells were plated at 1×10⁵ cells per well in a 96 well V-bottom plate (Thermo Scientific, Rochester, N.Y.). Three-fold serial dilutions of 2× concentrated antibodies were prepared in FACs buffer (PBS+2% fetal bovine serum) and were added to the cells in duplicate. The antibody solutions were incubated with cells for 1 hour on ice, protected from light. The cells were washed twice with FACs buffer and analyzed on the LSRII flow cytometer (BD BioSciences, San Jose, Calif.). KD values were determined with GraphPad Prism software (La Jolla, Calif.). Anti-human NTB-A antibodies h20F3_HDLD and chimeric 20F3 were tested for binding to 293-F17 cells overexpressing cynomolgus-NTB-A. 293-F17/cynomolgus-NTB-A cells were plated at 5×10⁵ cells/well in FACS buffer (PBS+2% fetal bovine serum+0.02% azide) and incubated with 20 μg/mL antibody for 30 minutes on ice. The cells were washed twice and stained with 30 μg/mL goat anti-human IgG-PE (Jackson ImmunoResearch, West Grove, Pa.) for 30 minutes, on ice and protected from light. Cells were again washed twice with FACs buffer. Stained cells were analyzed on the FACs Calibur flow cytometer (BD BioSciences, San Jose, Calif.).
A general note: In flow cytometry, cells or beads pass a laser one at a time.
B1 had a Kd of 2.2 nM.

For a further assay, the target named is T1, human NTB-A. Description: cell-based or functional assay.
As for B2, the “IC50, 96 hour cytotoxicity (Cell-Titer Glo), resting human B cells, donor 1” value came out at 1.47 µg/mL; the “IC50, 96 hour cytotoxicity (Cell-Titer Glo), resting human B cells, donor 2” value turned out to be 1.27 µg/mL; the “IC50, 96 hour cytotoxicity (Cell-Titer Glo), resting human B cells, donor 3” value was found to be 3.42 µg/mL; the “IC50, 96 hour cytotoxicity (Cell-Titer Glo), resting human T cells, donor 4” value is over 10 µg/mL. Further, the “IC50, 96 hour cytotoxicity (Cell-Titer Glo), resting human T cells, donor 5” value is over 10 µg/mL and the “IC50, 96 hour cytotoxicity (Cell-Titer Glo), resting human T cells, donor 6” value was over 10 µg/mL.

For the molecule B3, the “IC50, 96 hour cytotoxicity (Cell-Titer Glo), resting human B cells, donor 1” value is over 10 µg/mL; the “IC50, 96 hour cytotoxicity (Cell-Titer Glo), resting human B cells, donor 2” value was over 10 µg/mL; the “IC50, 96 hour cytotoxicity (Cell-Titer Glo), resting human B cells, donor 3” value is over 10 µg/mL.

A further assay concerns the target T1, human NTB-A. Description: competition flow cytometry on Ramos cells; competitor 5 nM mouse 20F3-Alexa Fluor 647. As to the method:
(§2) Antigen positive Ramos cells were plated at 1×10⁵ cells per well in a 96 well V-bottom plate (Thermo Scientific, Rochester, N.Y.). Fifty-fold serial dilutions of antibodies were prepared in FACs buffer (PBS+2% fetal bovine serum) and were added to the cells in duplicate. The antibody solutions were incubated with cells for 1 hour on ice, protected from light. The cells were washed twice with FACs buffer and analyzed on the LSRII flow cytometer (BD BioSciences, San Jose, Calif.). EC50 values were determined with GraphPad Prism software (La Jolla, Calif.).
Consider B4, for which the 50% effective concentration (EC50) is 2 nM.

B5 showed a half-maximal effective concentration (EC50) of 5 nM.

For the molecule B6, the response was half-maximal at 6 nM (EC50).

In turn, B7 had an EC50 of 12 nM.

B8 registered an EC50 of 10 nM. The EC50 values of the last two molecules are within 1.5-fold of each other.

As to B9, the response was half-maximal at 12 nM (EC50).

As to B10, the EC50 is 8 nM.

B11: a half-maximal response (EC50) required 6 nM.

In turn, B12 displayed a half-maximal effective concentration (EC50) of 15 nM.

Molecule B13 displayed an EC50 of 4 nM.

B14 registered an EC50 of 12 nM.

Molecule B15 displayed an EC50 of 25 nM.

As to B16, the EC50 is 2 nM.

Molecule B17 gave a concentration for a half-maximal effect (EC50) of 3 nM.

B18 came in with an EC50 of 71 nM. Compared with the last molecule, the EC50 is about 24-fold higher.

For the molecule B1, the EC50 came to 3 nM. This EC50 lies about 24-fold lower than the previous one.

B19 returned an EC50 of 5 nM.

B20 showed an EC50 of 27 nM.

Take B21: the EC50 amounted to 31 nM.

B22: the EC50 was found to be 147 nM.

Molecule B23 gave an EC50 of 4 nM.

The target in a further assay is T1, human NTB-A. Description: antigen binding competition assay on Ramos cells. On the procedure: as §2
In the case of B1, the EC50 is about 12 nM.

The target in another assay is T1, human NTB-A. Description: cell-based or functional assay. This is another data set of the same source.
For B24, the “Maximum % Phagocytosis (ADCP), Raji cell line” value worked out at 44%; the “Maximum % Phagocytosis (ADCP), WIL2-S cell line” value worked out at 45%; the “Maximum % Phagocytosis (ADCP), normal human T cells” value worked out at 33%.

B1: the “Maximum % Phagocytosis (ADCP), Raji cell line” value came to 48%; the “Maximum % Phagocytosis (ADCP), WIL2-S cell line” value came out at 45%; the “Maximum % Phagocytosis (ADCP), normal human T cells” value came to 42%.

In a further assay the target is T1, human NTB-A. Description: saturation binding of Alexa Fluor 647-labeled antibody on Ramos cells, flow cytometry. On the procedure:
as §1
The molecule B25 showed a Kd of 1.68 nM.

One may read the Kd as a measure of binding affinity in units of concentration. For orientation: EC50 means the midpoint of the concentration-response curve. A higher EC50 goes with a need for much substance.

The record behind these values is patent US20180169257A1 (Seagen, published 2018).
